Laboratory results from patent US20230302155A1, “COMPOSITIONS AND METHODS FOR IN VIVO GENERATION OF CAR EXPRESSING CELLS” (Novartis AG, priority 2020, published 2023).
“Also recorded” adds a separate entry of the source.

B1: #9: major mature VEGF-C (112-227) with C137A mutation, SEQ ID NO: 737 (His) / 738 (protein)
chain: AHYNTEILKSIDNEWRKTQCMPREVAIDVGKEFGVATNTFFKPPCVSVYRCGGCCNSEGLQCMNTSTSYLSKTLFEITVPLSQGPKPVTISFANHTSCRCMSKLDVYRQVHSIIRR
B2: #2: major mature VEGF-C (112-227), wild type, SEQ ID NO: 731 (His) / 732 (protein, listed as Homo sapiens)
chain: AHYNTEILKSIDNEWRKTQCMPREVCIDVGKEFGVATNTFFKPPCVSVYRCGGCCNSEGLQCMNTSTSYLSKTLFEITVPLSQGPKPVTISFANHTSCRCMSKLDVYRQVHSIIRR
B3: #8: minor mature VEGF-C (103-227) with C137A mutation, SEQ ID NO: 735 (His) / 736 (protein)
chain: TEETIKFAAAHYNTEILKSIDNEWRKTQCMPREVAIDVGKEFGVATNTFFKPPCVSVYRCGGCCNSEGLQCMNTSTSYLSKTLFEITVPLSQGPKPVTISFANHTSCRCMSKLDVYRQVHSIIRR
B4: #7: minor mature VEGF-C (103-227), wild type, SEQ ID NO: 733 (His) / 734 (protein, listed as Homo sapiens)
chain: TEETIKFAAAHYNTEILKSIDNEWRKTQCMPREVCIDVGKEFGVATNTFFKPPCVSVYRCGGCCNSEGLQCMNTSTSYLSKTLFEITVPLSQGPKPVTISFANHTSCRCMSKLDVYRQVHSIIRR

Experiments:
EGFRvIII CARTs = assay: Cytokine production of EGFRvIII CARTs stimulated by ligand-presenting MSRs; format: cell-based; conditions: lipid-coated MSRs, multiplex cytokine analysis
Protocol: Briefly, liposomes primarily composed of POPC with 1 mol % PE-biotin were formed using a thin film rehydration method and extrusion through a 100 nm polycarbonate membrane. Hydroxyl functionalized MSRs were incubated with the liposomes to allow the formation of a supported lipid bilayer on the MSR surface (FIG. 6). To functionalize the MSRs with CD3 and CD28 agonistic antibodies, MSRs were washed several times with PBS, incubated with streptavidin, and then tethered with biotinylated CD3 and CD28 antibodies. For MSR-immobilization of EGFRvIII CAR-binding peptides, a biotinylated EGFRvIII CAR-binding peptide was used (FIG. 7).
After incubation with the desired ligands, MSRs were washed several times with PBS and resuspended in culture medium at various concentrations and incubated with T cells. […] Cytokine production was assessed using a multiplex cytokine analysis method (Mesoscale Delivery V-Plex).

[1] = test system: human dermal lymphatic endothelial cells (HDLECs); assay: HDLECs sprouting (tube formation) assay; format: cell-based; conditions: 600 μg of VEGF-C protein, overnight, phalloidin staining
Protocol: Human Dermal Lymphatic Endothelial Cells (HDLECs) were seeded (p0) and passaged at 75% confluence until p4 or enough cells were obtained for experiments. One ml was then aliquoted into Eppendorf tubes, treated with 600 μg of VEGF-C protein, and vortexed. Each treatment was added to warmed media in a 6 well plate and incubated overnight at 37 C (5% CO2). For imaging analysis cells were washed and then fixed with 3.7% formalin-0.05% Triton X-100 solution (fixing buffer), then washed and coated with 0.1% Triton X-100 solution (permeabilization buffer). After washing twice with PBS cells were coated with 0.05% Triton X-100 in 1% BSA solution (blocking buffer). DAPI and phalloidin staining was performed according to known protocols. After staining cells were washed twice with PBS and imaged.
An overview of the experimental setup of the in vitro sprouting assay on HDLECs to test the biological activity of VEGF-C variants is shown in FIG. 20A. HDLECs were first seeded (p0) and passaged at 75% confluence until p4 or enough cells were obtained for experiments. About 1 mL of the HDLECs was then aliquoted into Eppendorf tubes, treated with 600 μg of VEGF-C protein, and vortexed. Each treatment was added to warmed media in a 6 well plate and incubated overnight at 37 C (5% CO2). For imaging analysis, cells were washed and then fixed with 3.7% formalin-0.05% Triton X-100 solution (fixing buffer), then washed and coated with 0.1% Triton X-100 solution (permeabilization buffer). After washing twice with PBS, cells were coated with 0.05% Triton X-100 in 1% BSA solution (blocking buffer). DAPI and phalloidin staining was performed according to known protocols. After phalloidin staining, cells were washed twice with PBS, and imaged for tube formation.

[2] = test system: lymphatic endothelial cells (LECs); assay: In vivo lymphangiogenesis in mouse skin after cryogel delivery (flow cytometry); design: species or system C57/BL6 mice; conditions: for in vivo lymphangiogenesis (LEC counts per mg of tissue): 10 μg VEGF-C in cryogel (0.25 mg/ml laponite), day 14
Protocol: (§1) Tissues were harvested from mice, weighted, and cut into very fine pieces with scissors. Samples were then enzymatically digested under constant stirring in of digestion media containing collagenase 4 and DNAse 1. Samples were then pipetted up and down. Following pipetting, digestion media containing collagenase D and DNAse 1 was added to the samples. Samples were pipetted up and down for 3 cycles. EDTA was added (5 mM) and cells were filtered through 70 μm filters and 40 uM mesh and resuspended in Fc blocking buffer. Cells were washed and stained for FACS analysis.
(§2) Cryogels (0.25 mg/ml laponite) containing 10 μg of different VEGF-C constructs were injected superficially into the dermis mice (N=5/group) at day 0. At day 14 mice were euthanized and the skin/cryogel (combined) were dissected for digestion and FACS analysis. Representative FACS plots of LECs (CD31^+, PDPN^+) are pre-gated on FSC-A/SSC-A, and CD45^− (FIG. 22). The results of FIG. 23 bear on the delivery of VEGF-C. Mice were injected with VEGF-C (N=12) or blank cryogels (N=10) synthesized as previously mentioned. Skin/gels from mice were harvested at timepoints day 7, 14, and 21, digested, and stained for FACS. LECs were gated on CD45^− CD31^+ PDPN^+. BECs were gated on CD45^− CD31^+ PDPN^−. CD4 and CD8 T Cells were gated on CD45^+ CD11b^−CD11c^−Thy1^+.
First, cryogels (0.25 mg/ml laponite) containing 10 μg of different VEGF-C forms, including the dimeric forms of the major and minor mature forms that are wild-type (#2 and #7, respectively) and the major and minor mature forms that comprise the C137A mutation (#9 and #8, respectively), were injected superficially into the dermis of mice (N=5/group) at day 0. At day 14 mice were euthanized and the skin/cryogel (combined) were dissected for digestion and FACS analysis (FIG. 22A). Specifically, tissues were harvested from mice, weighted, and cut into very fine pieces with scissors. Samples were then enzymatically digested under constant stirring of digestion media containing collagenase 4 and DNAse 1. Samples were then pipetted up and down. Following pipetting, digestion media containing collagenase D and DNAse 1 was added to the samples. Samples were pipetted up and down for 3 cycles. EDTA was added (5 mM) and cells were filtered through 70 μm filters and 40 μM mesh and resuspended in Fc blocking buffer. Cells were washed and stained for FACS analysis.
In addition, the response of skin lymphatics to […] VEGF-C delivered by alginate cryogels was measured. […] Skin/gels from mice were harvested as described above, at timepoints day 7, 14, and 21, digested, and stained for FACS. LECs were gated on CD45^− CD31^+ PDPN^+. BECs were gated on CD45^− CD31^+ PDPN^−. […] The number of cells per mg of tissue were also quantified.

[3] = test system: CD4+ T cells and CD8+ T cells; assay: Immune infiltration of mouse skin after cryogel delivery (flow cytometry); format: in vivo, C57/BL6 mice; conditions: skin on top of the cryogels
Protocol: as §1
as §2, with “BECs were gated on CD45^− CD31^+ PDPN^−. CD4 and CD8 T Cells were gated on CD45^+ CD11b^−CD11c^−Thy1^+.” left out
In addition, the response of skin lymphatics to […] VEGF-C delivered by alginate cryogels was measured. […] The number of cells per mg of tissue were also quantified.

Row | Molecule | interferon gamma and IL-2 production (EGFRvIII CARTs) | sprouting of HDLECs (tube formation) [1] | in vivo lymphangiogenesis (LEC counts per mg of tissue) ([2]; skin) | further results
1 | free EGFRvIII CAR-binding peptide in solution: EGFRvIII CAR-binding peptide LEEKKGNYVVTDH (SEQ ID NO: 756) [reference compound] | no response |  |  | 
2 | EGFRvIII CAR-binding peptide bound to the surface of the MSRs: biotinylated peptide LEEKKGNYVVTDH (SEQ ID NO: 756) coupled via streptavidin to lipid-coated MSRs | produced interferon gamma and IL-2 |  |  | 
3 | B1 |  | better sprouting of HDLECs than the immature form | high in vivo lymphangiogenesis; also recorded: higher amounts of LECs compared to the dimers of the major and minor mature forms that are wild-type | 
4 | B2 |  | better sprouting of HDLECs than the immature form |  | 
5 | B3 |  | better sprouting of HDLECs than the immature form | high in vivo lymphangiogenesis; also recorded: higher amounts of LECs compared to the dimers of the major and minor mature forms that are wild-type | day of peak T cell / immune infiltration after cryogel delivery [3]: 14 days; blood vascular endothelial cells (BECs, CD45−CD31+PDPN−) ([2]; skin, 14 days after cryogel delivery): not affected
6 | B4 |  | better sprouting of HDLECs than the immature form |  | time of peak lymphangiogenesis after cryogel delivery ([2]; 10 μg VEGF-C in alginate cryogel, subcutaneous): 14 days
